Source: US20160272683A1 (Novo Nordisk, published 2016)
Numbered stars: 1 amine (or outer) side, 2 acyl side, 3 side chain; on linkers, the order of the positions; unused ones are H or OH. * marks the point of attachment. C20 diacid = O=C(O)CCCCCCCCCCCCCCCCCCC(=O)*; γGlu = O=C(O)[C@H](CCC(=O)[*:2])N[*:1]

T1: human amylin receptor (human calcitonin receptor + human RAMP3) (human) (UniProt P30988)
T1 sequence (looked up) 1: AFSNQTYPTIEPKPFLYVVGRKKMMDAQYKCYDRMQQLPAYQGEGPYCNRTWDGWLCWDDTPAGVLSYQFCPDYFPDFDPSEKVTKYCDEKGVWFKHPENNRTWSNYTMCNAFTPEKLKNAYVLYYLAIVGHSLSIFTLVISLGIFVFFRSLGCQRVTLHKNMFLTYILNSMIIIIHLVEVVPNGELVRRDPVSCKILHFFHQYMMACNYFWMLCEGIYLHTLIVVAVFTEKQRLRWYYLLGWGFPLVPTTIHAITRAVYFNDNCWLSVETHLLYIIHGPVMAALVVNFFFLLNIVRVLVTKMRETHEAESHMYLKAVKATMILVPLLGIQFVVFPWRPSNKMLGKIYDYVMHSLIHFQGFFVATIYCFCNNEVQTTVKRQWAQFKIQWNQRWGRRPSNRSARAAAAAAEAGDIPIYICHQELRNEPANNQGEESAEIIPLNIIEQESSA
T1 sequence (looked up) 2: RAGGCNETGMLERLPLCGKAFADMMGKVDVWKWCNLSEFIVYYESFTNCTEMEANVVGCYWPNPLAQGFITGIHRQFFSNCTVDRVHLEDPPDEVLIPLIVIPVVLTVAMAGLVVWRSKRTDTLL


Biological target: T1, human amylin receptor (human calcitonin receptor + human RAMP3) (human)
Experiment: whole-cell competition vs 125I-rat amylin (Assay Va)

Row | IC50 [nM] | Binder
1 | 7.26 | {C20 diacid-γGlu}-ASELSTAALGRLSAELHELATYPRTETGSGSPG-OH (SMILES CC(C)C[C@H](NC(=O)[C@H](C)NC(=O)[C@H](C)NC(=O)[C@@H](NC(=O)[C@H](CO)NC(=O)[C@H](CC(C)C)NC(=O)[C@H](CCC(=O)O)NC(=O)[C@H](CO)NC(=O)[C@H](C)NC(=O)CC[C@H](NC(=O)CCCCCCCCCCCCCCCCCCC(=O)O)C(=O)O)[C@@H](C)O)C(=O)NCC(=O)N[C@@H](CCCNC(=N)N)C(=O)N[C@@H](CC(C)C)C(=O)N[C@@H](CO)C(=O)N[C@@H](C)C(=O)N[C@@H](CCC(=O)O)C(=O)N[C@@H](CC(C)C)C(=O)N[C@@H](Cc1c[nH]cn1)C(=O)N[C@@H](CCC(=O)O)C(=O)N[C@@H](CC(C)C)C(=O)N[C@@H](C)C(=O)N[C@H](C(=O)N[C@@H](Cc1ccc(O)cc1)C(=O)N1CCC[C@H]1C(=O)N[C@@H](CCCNC(=N)N)C(=O)N[C@H](C(=O)N[C@@H](CCC(=O)O)C(=O)N[C@H](C(=O)NCC(=O)N[C@@H](CO)C(=O)NCC(=O)N[C@@H](CO)C(=O)N1CCC[C@H]1C(=O)NCC(=O)O)[C@@H](C)O)[C@@H](C)O)[C@@H](C)O) [[N-terminal(C20 diacid-gGlu), des1, 23Y, 30S, 31G, 34G, C-terminal(-)]mimylin]
2 | 2.61 | {C20 diacid-γGlu}-ASELSTATLGRLSAELHELSTYPRTETGSGSP-NH2 (SMILES CC(C)C[C@H](NC(=O)[C@H](CCCNC(=N)N)NC(=O)CNC(=O)[C@H](CC(C)C)NC(=O)[C@@H](NC(=O)[C@H](C)NC(=O)[C@@H](NC(=O)[C@H](CO)NC(=O)[C@H](CC(C)C)NC(=O)[C@H](CCC(=O)O)NC(=O)[C@H](CO)NC(=O)[C@H](C)NC(=O)CC[C@H](NC(=O)CCCCCCCCCCCCCCCCCCC(=O)O)C(=O)O)[C@@H](C)O)[C@@H](C)O)C(=O)N[C@@H](CO)C(=O)N[C@@H](C)C(=O)N[C@@H](CCC(=O)O)C(=O)N[C@@H](CC(C)C)C(=O)N[C@@H](Cc1c[nH]cn1)C(=O)N[C@@H](CCC(=O)O)C(=O)N[C@@H](CC(C)C)C(=O)N[C@@H](CO)C(=O)N[C@H](C(=O)N[C@@H](Cc1ccc(O)cc1)C(=O)N1CCC[C@H]1C(=O)N[C@@H](CCCNC(=N)N)C(=O)N[C@H](C(=O)N[C@@H](CCC(=O)O)C(=O)N[C@H](C(=O)NCC(=O)N[C@@H](CO)C(=O)NCC(=O)N[C@@H](CO)C(=O)N1CCC[C@H]1C(N)=O)[C@@H](C)O)[C@@H](C)O)[C@@H](C)O) [[N-terminal(C20 diacid-gGlu), des1, 9T, 21S, 23Y, 30S, 31G]mimylin]
3 | 21 | {C20 diacid-γGlu}-ASELSTAALGRLSAELHELATYPRTETGSGSPK-OH (SMILES CC(C)C[C@H](NC(=O)[C@H](C)NC(=O)[C@H](C)NC(=O)[C@@H](NC(=O)[C@H](CO)NC(=O)[C@H](CC(C)C)NC(=O)[C@H](CCC(=O)O)NC(=O)[C@H](CO)NC(=O)[C@H](C)NC(=O)CC[C@H](NC(=O)CCCCCCCCCCCCCCCCCCC(=O)O)C(=O)O)[C@@H](C)O)C(=O)NCC(=O)N[C@@H](CCCNC(=N)N)C(=O)N[C@@H](CC(C)C)C(=O)N[C@@H](CO)C(=O)N[C@@H](C)C(=O)N[C@@H](CCC(=O)O)C(=O)N[C@@H](CC(C)C)C(=O)N[C@@H](Cc1c[nH]cn1)C(=O)N[C@@H](CCC(=O)O)C(=O)N[C@@H](CC(C)C)C(=O)N[C@@H](C)C(=O)N[C@H](C(=O)N[C@@H](Cc1ccc(O)cc1)C(=O)N1CCC[C@H]1C(=O)N[C@@H](CCCNC(=N)N)C(=O)N[C@H](C(=O)N[C@@H](CCC(=O)O)C(=O)N[C@H](C(=O)NCC(=O)N[C@@H](CO)C(=O)NCC(=O)N[C@@H](CO)C(=O)N1CCC[C@H]1C(=O)N[C@@H](CCCCN)C(=O)O)[C@@H](C)O)[C@@H](C)O)[C@@H](C)O) [[N-terminal(C20 diacid-gGlu), des1, 23Y, 30S, 31G, 34K, C-terminal(-)]mimylin]
